Measurements from PMC5787828, “NAC transcription factor JUNGBRUNNEN1 enhances drought tolerance in tomato”.

T1: AtJUB1-GST (Arabidopsis thaliana, UniProt Q9SK55 1-275)
T1 sequence: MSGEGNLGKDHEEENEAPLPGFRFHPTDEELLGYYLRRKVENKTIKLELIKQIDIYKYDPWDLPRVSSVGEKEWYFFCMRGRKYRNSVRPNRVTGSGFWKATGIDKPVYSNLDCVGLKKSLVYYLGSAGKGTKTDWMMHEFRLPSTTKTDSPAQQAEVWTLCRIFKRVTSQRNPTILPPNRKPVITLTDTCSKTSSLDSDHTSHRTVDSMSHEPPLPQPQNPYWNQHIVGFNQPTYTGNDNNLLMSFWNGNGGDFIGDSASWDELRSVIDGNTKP

B1: SlDREB1 promoter probe (dsDNA)
DNA 1: TTATTTAGTCGAGTCGTGGCTGTTGGGATGCCGCGGAATTCAGCACGTG
DNA 2: CACGTGCTGAATTCCGCGGCATCCCAACAGCCACGACTCGACTAAATAA
B2: SlDELLA promoter probe (dsDNA)
DNA 1: ATTTTTCACACTTGACCACCACCACTTTTACTTGCCCTACTAAATCTAAA
DNA 2: TTTAGATTTAGTAGGGCAAGTAAAAGTGGTGGTGGTCAAGTGTGAAAAAT
B3: SlDREB2 promoter probe (dsDNA)
DNA 1: TATATGGCTGTGCTTGATCGAACTTCAAATATGATGTTACCTATGGATTA
DNA 2: TAATCCATAGGTAACATCATATTTGAAGTTCGATCAAGCACAGCCATATA

target: T1, AtJUB1-GST; experiment: EMSA; abolished by 100x unlabelled competitor; Odyssey Infrared EMSA kit (LI-COR); buffer, salt, pH and temperature not stated; conditions: protein: recombinant; tags: GST (pDEST24 fusion); chain copies: 2; label: 5'-DY682; blunt

Binding result, binds:
B1, B2, B3
